B2: adaptor protein FADD (human) (other, UniProt Q13158 1-208, looked up)
chain: MDPFLVLLHSVSSSLSSSELTELKFLCLGRVGKRKLERVQSGLDLFSMLLEQNDLEPGHTELLRELLASLRRHDLLRRVDDFEAGAAAGAAPGEEDLCAAFNVICDNVGKDWRRLARQLKVSDTKIDSIEDRYPRNLTERVRESLRIWKNTEKENATVAHLVGALRSCQMNLVADLVQEVQQARDLQNRSGAMSPMSWNSDASTSEAS
notes: also called CAP1

For assay [1], the target named is T1, Flag-marked FLIPP (caspase-homologous C-terminal protein segment of human FLIPL) (human, UniProt O15519 233-480).
T1 construct: also called caspase-homologous protein segment of FLIPL
T1 sequence (O15519 other isoform, or with tags, fused parts or gaps limits assumed): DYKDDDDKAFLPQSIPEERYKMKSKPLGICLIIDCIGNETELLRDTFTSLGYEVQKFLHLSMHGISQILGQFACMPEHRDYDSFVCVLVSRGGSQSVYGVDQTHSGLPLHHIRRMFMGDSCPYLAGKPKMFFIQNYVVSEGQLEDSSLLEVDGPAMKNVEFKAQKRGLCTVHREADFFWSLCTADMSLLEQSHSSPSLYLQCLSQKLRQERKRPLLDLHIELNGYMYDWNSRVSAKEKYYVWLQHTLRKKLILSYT
As to the kind of experiment: anti-Flag immune precipitation, anti-myc Western blot, co-transfected 293T cells (with FADD). (In general: In western blotting, separated proteins are transferred to a membrane and probed.)

Assay [2] deals with T2, Flag-marked 159L protein (viral FLIP, ORF 159L of molluscum contagiosum virus, MCV) (molluscum contagiosum virus (MCV), UniProt Q98325 1-241).
T2 construct: also called Flag-159L; 159L-FLIP (MCV)
T2 sequence: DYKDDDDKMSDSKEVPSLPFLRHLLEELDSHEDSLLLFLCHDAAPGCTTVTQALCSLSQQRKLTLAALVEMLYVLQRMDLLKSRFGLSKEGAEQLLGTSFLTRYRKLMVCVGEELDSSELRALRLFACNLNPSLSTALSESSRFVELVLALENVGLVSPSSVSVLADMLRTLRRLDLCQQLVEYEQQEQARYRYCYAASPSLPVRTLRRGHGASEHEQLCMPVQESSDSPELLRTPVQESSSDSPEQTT
As to the kind of experiment: co-transfection in 293T cells, anti-Flag immune precipitation, anti-FADD Western blot.

Assay [3] deals with T1, Flag-marked FLIPP (caspase-homologous …). As to the kind of experiment: anti-Flag immune precipitation, anti-FADD Western blot, co-transfected 293T cells.
For assay [4], the target named is T3, CD95 (APO-1/Fas) death receptor of human Raji B cells, stimulated with agonistic anti-APO-1 antibody (human, UniProt P25445 26-335).
T3 construct: whole, on cells; also called CD95 death receptor; CD95 receptor complex
T3 sequence: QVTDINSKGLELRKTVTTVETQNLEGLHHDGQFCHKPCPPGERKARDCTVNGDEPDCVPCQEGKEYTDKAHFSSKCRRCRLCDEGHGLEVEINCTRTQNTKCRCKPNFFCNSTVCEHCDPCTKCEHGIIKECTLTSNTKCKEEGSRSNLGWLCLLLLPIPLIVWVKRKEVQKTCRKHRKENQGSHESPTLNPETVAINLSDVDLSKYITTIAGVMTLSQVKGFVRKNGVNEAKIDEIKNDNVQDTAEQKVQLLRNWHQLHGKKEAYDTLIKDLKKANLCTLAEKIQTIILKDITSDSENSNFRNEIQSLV
As to the kind of experiment: anti-CD95 (APO-1) immune precipitation from Raji clones, gels.

Assay [5] addresses B2. As to the kind of experiment: anti-Flag immune precipitation, anti-FADD Western blot, 293T cells.

B1: myc-marked cytoplasmic protein segment of the CD95 (Fas) death receptor (receptor, murine, UniProt P25446 187-327, looked up, not shown: small tags and cut ends)
chain: RKYRKRKCWKRRQDDPESRTSSRETIPMNASNLSLSKYIPRIAEDMTIQEAKKFARENNIKEGKIDEIMHDSIQDTAEQKVQLLLCWYQSHGKSDAYQDLIKGLKKAECRRTLDKFQDMVQKDLGKSTPDTGNENEGQCLE
notes: range 166-306; also called myc-CD95; my-CD95
B1: the binding result in assay [1] was “no binding”.

As to B2, the results for the binding result in assay [2] and in assay [3] were “binds” and “no binding”, respectively.

B3: Flag-marked E8 protein (viral FLIP, ORF E8 of equine herpes virus 2, EHV-2) (other, equine herpes virus 2 (EHV-2))
chain: DYKDDDDKMSHYSMIDTYFSLDEDETETYLYLCRDLLKNKGEFQCTRDAFKFLSDYACLSAANQMELLFRVGRLDLIRRIFGQTWTPDSCPRYYMPICSPFRCLMALVNDFLSDKEVEEMYFLCAPRLESHLEPGSKKSFLRLASLLEDLELLGGDKLTFLRHLLTTIGRADLVKNLQV
notes: mature; also called Flag-E8; E8 FLIP
Turning to B3, the binding result in assay [4] and in assay [5] was “binds” each time.

Source of the values: patent publication US20050084876A1 (APOXIS SA FORMERLY APOTECH RESEARCH AND DEVELOPMENT LTD A …, published 2005).
